Assay [1] concerns the target T1, MSLN.Fc protein (human, UniProt Q13421 296-598, limits assumed).
T1 construct: also called MSLN·hFc; MSLN protein; not shown: human IgG Fc fragment
Briefly: ELISA, antigen coated, TG1 supernatant. On the technique in general: ELISA stands for enzyme-linked immunosorbent assay.

Assay [2] concerns the target T2, MD50 protein.
T2 construct: range 487-580; also called proximal membrane fragment of mesothelin
Briefly: ELISA, antigen coated, TG1 supernatant.

Assay [3] addresses T3, MSLN·His protein (human, UniProt Q13421 296-580, limits assumed).
T3 construct: Bought protein; also called human MSLN·His antigen; not shown: His tag
As to the kind of experiment: SPR (Biacore), antibody captured on protein A, MSLN·His as analyte. The source says: Referring to the method of humanizing nanoantibodies (J. Biol. Chem. 2009; 284: 3273-3284), M2339 was humanized using the method of CDR region transplantation. In IgBLAST (http://www.ncbi.nlm.nih.gov/igblast/), germline with high homology with M2339 was selected as the template in the database. Biacore was used to detect the affinity of the antibody before and after humanization. The purified antibody was flowed through the sensor chip pre-fixed with protein A, and the antibody was captured by protein A. Then five different concentrations of MSLN·His protein were used as the mobile phase, and the association time and dissociation time were 30 min and 60 min, respectively. The binding rate (ka), dissociation rate (kd), and equilibrium constant (kd) were analyzed using Biacore Evaluation Software 2.0 (GE).
For orientation: In SPR one partner is held on a chip, and binding of the other changes the refractive index at the surface.

T1 sequence (Q13421 other isoform, or with tags, fused parts or gaps limits assumed): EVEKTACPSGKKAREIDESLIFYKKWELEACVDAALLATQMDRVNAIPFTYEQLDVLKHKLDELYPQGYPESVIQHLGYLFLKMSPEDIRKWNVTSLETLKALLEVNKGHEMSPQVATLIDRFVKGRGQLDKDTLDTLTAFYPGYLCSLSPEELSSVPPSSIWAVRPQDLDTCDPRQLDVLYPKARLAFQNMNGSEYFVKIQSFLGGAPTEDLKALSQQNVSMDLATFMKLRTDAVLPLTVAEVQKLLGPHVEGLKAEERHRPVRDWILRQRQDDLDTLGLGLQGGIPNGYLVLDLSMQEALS
T2 sequence (Q13421 495-588): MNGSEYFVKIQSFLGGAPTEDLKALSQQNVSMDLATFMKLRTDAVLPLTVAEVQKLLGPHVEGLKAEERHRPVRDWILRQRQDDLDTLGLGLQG
T3 sequence (Q13421 other isoform, or with tags, fused parts or gaps limits assumed): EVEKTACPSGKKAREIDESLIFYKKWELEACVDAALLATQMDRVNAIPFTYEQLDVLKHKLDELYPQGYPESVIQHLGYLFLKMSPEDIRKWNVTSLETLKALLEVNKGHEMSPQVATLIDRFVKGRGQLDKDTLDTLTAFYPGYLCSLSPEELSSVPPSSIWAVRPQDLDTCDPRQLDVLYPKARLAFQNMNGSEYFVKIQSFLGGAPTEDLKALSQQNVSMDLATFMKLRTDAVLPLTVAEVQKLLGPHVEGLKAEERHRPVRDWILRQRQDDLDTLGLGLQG

B1: M012 (VHH)
VHH: QVQLVESGGDLVQTGGSLRLSCVVSGSTFAINAMGWYRQAPGKERELVAAISSGGDSTHYADDVKGRFTISRDNAENTMYLQMKSLKPEDTAVYVCNARGCRDFHNPQALCVLRDYWGQGTQVTVSS
notes: Nanoantibody in TG1 supernatant in the screening ELISA; also called clone M012
B1: the entries for the “ELISA (OD450)” value in assay [1] and in assay [2] were 0.938 OD450 and 2.05 OD450, respectively.

B2: M005 (VHH)
VHH: EVQLVESGGGWVQSGGSLRLACAASGSSFGLNVVGWYRQAPDKQRELVASIGNGGRTTDYADSVKGRFTISSDNAKNTVFLQMNDLKPEDTAVYYCHLRASVTKGYWGQGTQVTVSS
notes: Nanoantibody in TG1 supernatant in the screening ELISA; also called clone M005
With B2, the “ELISA (OD450)” value in assay [1] turned out to be 1.18 OD450; in assay [2] it was 1.03 OD450.

B3: M126 (VHH)
VHH: EVQLVESGGGWVQSGGSLRLACAASGDSFGLNVVGWYRLAPDKQRELVASIGNGGRTTDYADSVKGRFTISSDNAKNTVFLQMNDLKPEDTAMYYCHLRVSVTEGYWGQGTQVTVSS
notes: Nanoantibody in TG1 supernatant in the screening ELISA; also called clone M126
For B3, the “ELISA (OD450)” value in assay [1] came out at 1.95 OD450; in assay [2], 0.926 OD450.

B4: M001 (VHH)
VHH: EVQLVESGGGLVQAGGSLRLSCAASGSIFNINAMGWYRQAPGKEWERELVATISSSNSDNTYYKDSVKGRFTISTNTAKNTWYLQMNSLKPEDTAMYYCAAENYDRKDRYWGQGTQVTVSS
notes: Nanoantibody in TG1 supernatant in the screening ELISA; also called clone M001
For B4, the “ELISA (OD450)” value worked out at 1.72 OD450 in assay [1] and 1.35 OD450 in assay [2].

B5: M003 (VHH)
VHH: QVQLVESGGGLVQAGGSLRLSCTASGNIFSINAMGWYRQPPGKEWERELVATISSTNSDNTYYKESVKGRFTISTNTAKNTWYLQMNSLKPEDTAMYYCAAENFDRKDRYWAQGTQVTVSS
notes: Nanoantibody in TG1 supernatant in the screening ELISA; also called clone M003
On to B5, for which the “ELISA (OD450)” value in assay [1] was 2.38 OD450; in assay [2] it was 1.73 OD450.

B6: M010 (VHH)
VHH: QVQLVESGGGLVQAGGSLRLSCAASGSVSSINAMGWYRQGTGEVRKLVATMGSGGNTYYADSVKGRFFITRDYSKNTVSLQMNNLTPEDSATYYCAADRFGASIHEVDYWGKGTLVTVSS
notes: Nanoantibody in TG1 supernatant in the screening ELISA; also called clone M010
Regarding B6, the “ELISA (OD450)” value worked out at 2.75 OD450 in assay [1] and 2.09 OD450 in assay [2].

B7: M032 (VHH)
VHH: EVQLVESGGGSVQAGGSLKISCAASGSVIDIGAMGWYRHITEKERKLVATINAGGNTYYADSVKGRFTISRDNAKYTVYLQMNSLKPEDTAMYYCAAEDINYTGTEAYYWGQGTQVTVSS
notes: Nanoantibody in TG1 supernatant in the screening ELISA; also called clone M032
In the case of B7, the figures for the “ELISA (OD450)” value in assay [1] and in assay [2] were 1.41 OD450 and 1.72 OD450, respectively.

B8: M2339-z11-1 (antibody, IgG4, V domains shown)
VH: EVQLVASGGGLVQPGGSLRLSCALSGFTLRELDEFAIGWFRQAPGKEREGVSCISGTGGITHYADSVKGRFTISRDNSKTTVYLQMNSLRAEDTAVYYCAADERCTDRLIRPPTYWGQGTQVTVSS
notes: Humanized variant of M2339
Usually Kd stands for a measure of binding affinity in units of concentration. Low readings indicate a tighter complex, high ones a looser complex. By koff is commonly meant the rate constant with which the complex falls apart. As usually defined, the kon is the rate constant with which the complex forms. A lower kon goes with slow association. Turning to B8, in assay [3], the Kd was determined as 59.5 nM, the koff was found to be 0.00608 s⁻¹ and the kon was 102000 M⁻¹ s⁻¹.

B9: M2339-z11-12 (antibody, IgG4, V domains shown)
VH: EVQLGASGGGLVQPGGSLRLSCALSGFTLRELDEFAIGWFRQAPGKEREGVSCISGTGGITHYADSVKGRFTISRDIAKTTVYLQMNSLNSEDTAVYYCAADERCTDRLIRPPTYWGQGTQVTVSS
notes: Humanized variant of M2339
On to B9, for which, in assay [3], binding was characterised by a dissociation constant (Kd) of 12.2 nM, the koff amounted to 0.00102 s⁻¹ and the kon is 83800 M⁻¹ s⁻¹.

B10: M2339-z11-3 (antibody, IgG4, V domains shown)
VH: ELQLVASGGGLVQPGGSLRLSCALSGFTLRELDEFAIGWFRQAPGKEREGVSCISGTGGITHYADSVKGRFTISRDNSKTTVYLQMNSLRAEDTAVYYCAADERCTDRLIRPPTYWGQGTQVTVSS
notes: Humanized variant of M2339
Take B10: in assay [3], binding was characterised by a dissociation constant (Kd) of 2.78 nM, the koff was determined as 0.000132 s⁻¹ and the kon came out at 47400 M⁻¹ s⁻¹.

B11: M2339-z11-4 (antibody, IgG4, V domains shown)
VH: EVQLGASGGGLVQPGGSLRLSCALSGFTLRELDEFAIGWFRQAPGKEREGVSCISGTGGITHYADSVKGRFTISRDNSKTTVYLQMNSLRAEDTAVYYCAADERCTDRLIRPPTYWGQGTQVTVSS
notes: Humanized variant of M2339
In assay [3], B11 showed a dissociation constant (Kd) of 14.9 nM, a koff of 0.00119 s⁻¹ and a kon of 80000 M⁻¹ s⁻¹.

B12: M2339-z11-7 (antibody, IgG4, V domains shown)
VH: ELQLGASGGGLVQPGGSLRLSCALSGFTLRELDEFAIGWFRQAPGKEREGVSCISGTGGITHYADSVKGRFTISRDNSKTTVYLQMNSLRAEDTAVYYCAADERCTDRLIRPPTYWGQGTQVTVSS
notes: Humanized variant of M2339
Turning to B12, in assay [3], the Kd is 1.3 nM, the koff turned out to be 5.18e-05 s⁻¹ and the kon turned out to be 39800 M⁻¹ s⁻¹.

B13: M2339-z11-16 (antibody, IgG4, V domains shown)
VH: QLQLGASGGGLVQPGGSLRLSCALSGFTLRELDEFAIGWFRQAPGKEREGVSCISGTGGITHYADSVKGRFTISRDIAKTTVYLQMNSLRAEDTAVYYCAADERCTDRLIRPPTYWGQGTQVTVSS
notes: Humanized variant of M2339
On to B13, for which, in assay [3], the Kd was determined as 0.0961 nM, the koff came out at 6.52e-06 s⁻¹ and the kon came out at 67800 M⁻¹ s⁻¹.

B14: M2339-z11-17 (antibody, IgG4, V domains shown)
VH: ELQLGASGGGLVQPGGSLRLSCALSGFTLRELDEFAIGWFRQAPGKEREGVSCISGTGGITHYADSVKGRFTISRDNSKNTLYLQMNSLRAEDTAVYYCAADERCTDRLIRPPTYWGQGTQVTVSS
notes: Humanized variant of M2339
As to B14, in assay [3], the dissociation constant Kd is 3.98 nM, the koff was 0.000156 s⁻¹ and the kon is 39300 M⁻¹ s⁻¹.

B15: M2339-z11-9 (antibody, IgG4, V domains shown)
VH: QLQLVASGGGLVQPGGSLRLSCALSGFTLRELDEFAIGWFRQAPGKEREGVSCISGTGGITHYADSVKGRFTISRDIAKTTVYLQMNSLNSEDTAVYYCAADERCTDRLIRPPTYWGQGTQVTVSS
notes: Humanized variant of M2339
As for B15, in assay [3], the affinity, expressed as Kd, was 0.143 nM; the koff is 1.2e-05 s⁻¹; the kon came out at 83800 M⁻¹ s⁻¹.

B16: M2339-z11-8 (antibody, IgG4, V domains shown)
VH: QLQLGESGGGLVQPGGSLRLSCALSGFTLRELDEFAIGWFRQAPGKEREGVSCISGTGGITHYADSVKGRFTISRDIAKTTVYLQMNSLNSEDTAVYYCAADERCTDRLIRPPTYWGQGTQVTVSS
notes: Humanized variant of M2339
In assay [3], B16 yielded a Kd of 0.361 nM, a koff of 1.6e-05 s⁻¹ and a kon of 44300 M⁻¹ s⁻¹.

B17: M2339-z11-11 (antibody, IgG4, V domains shown)
VH: QLQLGASGGGLVQPGGSLRLSCAASGFTLRELDEFAIGWFRQAPGKEREGVSCISGTGGITHYADSVKGRFTISRDIAKTTVYLQMNSLNSEDTAVYYCAADERCTDRLIRPPTYWGQGTQVTVSS
notes: Humanized variant of M2339
As for B17, in assay [3], the Kd came to 0.274 nM, the koff was found to be 1.18e-05 s⁻¹ and the kon is 43000 M⁻¹ s⁻¹.

B18: M2339-z11-5 (antibody, IgG4, V domains shown)
VH: EVQLVASGGGLVQPGGSLRLSCALSGFTLRELDEFAIGWFRQAPGKEREGVSCISGTGGITHYADSVKGRFTISRDNSKTTVYLQMNSLNAEDTAVYYCAADERCTDRLIRPPTYWGQGTQVTVSS
notes: Humanized variant of M2339
Turning to B18, in assay [3], the Kd is 37.7 nM, the koff was determined as 0.00878 s⁻¹ and the kon stood at 233000 M⁻¹ s⁻¹.

B19: M2339-z11-6 (antibody, IgG4, V domains shown)
VH: EVQLVASGGGLVQPGGSLRLSCALSGFTLRELDEFAIGWFRQAPGKEREGVSCISGTGGITHYADSVKGRFTISRDNSKTTVYLQMNSLRSEDTAVYYCAADERCTDRLIRPPTYWGQGTQVTVSS
notes: Humanized variant of M2339
Take B19: in assay [3], the Kd was 47.4 nM, the koff stood at 0.00824 s⁻¹ and the kon was determined as 174000 M⁻¹ s⁻¹.

B20: M2339-z11-13 (antibody, IgG4, V domains shown)
VH: QLQLGASGGGLVQPGGSLRLSCALSGFTLRELDEFAIGWFRQAPGKEREGVSCISGTGGITHYADSVKGRFTISRDNSKTTVYLQMNSLNSEDTAVYYCAADERCTDRLIRPPTYWGQGTQVTVSS
notes: Humanized variant of M2339
In assay [3], B20 gave a Kd of 0.142 nM, a koff of 9.29e-06 s⁻¹ and a kon of 65200 M⁻¹ s⁻¹.

B21: M2339-z11-15 (antibody, IgG4, V domains shown)
VH: QLQLGASGGGLVQPGGSLRLSCALSGFTLRELDEFAIGWFRQAPGKEREGVSCISGTGGITHYADSVKGRFTISRDIAKTTLYLQMNSLNSEDTAVYYCAADERCTDRLIRPPTYWGQGTQVTVSS
notes: Humanized variant of M2339
In assay [3], B21 yielded a Kd of 0.16 nM, an off-rate constant (koff) of 1.14e-05 s⁻¹ and a kon of 71000 M⁻¹ s⁻¹.

B22: M2339-z11-14 (antibody, IgG4, V domains shown)
VH: QLQLGASGGGLVQPGGSLRLSCALSGFTLRELDEFAIGWFRQAPGKEREGVSCISGTGGITHYADSVKGRFTISRDIAKNTVYLQMNSLNSEDTAVYYCAADERCTDRLIRPPTYWGQGTQVTVSS
notes: Humanized variant of M2339
Turning to B22, in assay [3], the Kd amounted to 0.228 nM, the koff turned out to be 1.01e-05 s⁻¹ and the kon is 44400 M⁻¹ s⁻¹.

B23: M2339-z11-2 (antibody, IgG4, V domains shown)
VH: QVQLVASGGGLVQPGGSLRLSCALSGFTLRELDEFAIGWFRQAPGKEREGVSCISGTGGITHYADSVKGRFTISRDNSKTTVYLQMNSLRAEDTAVYYCAADERCTDRLIRPPTYWGQGTQVTVSS
notes: Humanized variant of M2339
Take B23: in assay [3], the Kd stood at 0.279 nM, the koff was 1.74e-05 s⁻¹ and the kon is 62300 M⁻¹ s⁻¹.

B24: M2339-z11-10 (antibody, IgG4, V domains shown)
VH: QLQLVESGGGLVQPGGSLRLSCALSGFTLRELDEFAIGWFRQAPGKEREGVSCISGTGGITHYADSVKGRFTISRDIAKTTVYLQMNSLNSEDTAVYYCAADERCTDRLIRPPTYWGQGTQVTVSS
notes: Humanized variant of M2339
In assay [3], B24 returned a Kd of 0.239 nM, a koff of 9.81e-06 s⁻¹ and a kon of 41000 M⁻¹ s⁻¹.
